In patent US20090155250A1 (US Dept. of Health and Human Services, published 2009):

Experiments:
BSA [1] = target: T1, BSA (UniProt P02769 25-607); test: ELISA, wells coated with the unrelated protein, IgG titrated
T1 construct: Unrelated control protein

BSA [2] = target: T1, BSA; test: ELISA, protein coated on wells

T1 sequence (P02769 25-607 limits assumed): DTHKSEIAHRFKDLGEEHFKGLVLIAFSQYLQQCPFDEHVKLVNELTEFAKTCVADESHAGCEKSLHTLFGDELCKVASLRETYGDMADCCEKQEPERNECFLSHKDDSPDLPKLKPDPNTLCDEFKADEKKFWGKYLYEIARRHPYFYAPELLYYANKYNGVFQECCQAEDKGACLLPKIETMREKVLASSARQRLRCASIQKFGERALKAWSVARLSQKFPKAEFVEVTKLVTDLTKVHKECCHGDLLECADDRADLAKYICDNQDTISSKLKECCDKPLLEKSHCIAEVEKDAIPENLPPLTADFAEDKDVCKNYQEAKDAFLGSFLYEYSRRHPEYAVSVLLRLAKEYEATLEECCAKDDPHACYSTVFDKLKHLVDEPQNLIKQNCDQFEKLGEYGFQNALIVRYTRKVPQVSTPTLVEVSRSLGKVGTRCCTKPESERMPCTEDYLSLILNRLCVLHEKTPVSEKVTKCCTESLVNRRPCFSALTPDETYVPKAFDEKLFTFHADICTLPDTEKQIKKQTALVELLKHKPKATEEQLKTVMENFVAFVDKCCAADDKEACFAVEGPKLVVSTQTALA

B1: chimpanzee/human anti-B5 MAb 8AH8AL (antibody, V domains shown)
VH: EVQLLESGGGLIKPGGSLRLSCAASGFIFRDYNINWVRQAPGKGLEWLGFIRTRASGRSTEYSASVKGRFTISRDDSKNIAYLHINSLKMEDTAVYYCAKKGDSYYYMDFWGKGTAVTVS
VL: ELALTQPASVSGSPGQSITISCTGGRSDLGDSNFVSWYQQYPGKAPKLLIYQVNKRPSGVPDRFSASKSANTASLTISGLQTEDEADYFCSSYTTTSTYVFGIGTKVVVLG
notes: also called anti-B5 8AH8AL; Anti-B5 8AH8AL
B1: no binding (tested: 10^4 ng/ml) (BSA [1]).

B2: chimpanzee/human anti-B5 MAb 8AH7AL (antibody, V domains shown)
VH: EVQLLESGGGLIKPGGSLRLSCAASGFIFRDYNINWVRQAPGKGLEWLGFIRTRASGRSTEYSASVKGRFTISRDDSKNIAYLHINSLKMEDTAVYYCAKKGDSYYYMDFWGKGTAVTVS
VL: ELALTQPPSVSGSPGQSITISCTGTSSDVGGHNGVSWYQQYPGKAPKVMIYEVNKRPSGVSNRLSGSKSGNTASLTISGLQAEDEGDYYCSSYRNGGSVVFGGGTKLTVLG
notes: also called anti-B5 8AH7AL
B2: no binding (BSA [2]).
